Data reported in patent US7601687.

Columns and labels:
[1] = target: B type Insulin Receptor of islet cells (endogenous) (rat or mouse (not stated for the experiment)); assay: cell-based or functional assay
[2] = target: B type Insulin Receptor of HIT-T15 cells (endogenous) (hamster); assay: cell-based or functional assay

βGK mRNA levels in pancreatic islets (FIG. 4A) [1]: 50 µU per ml
amount of exogenous insulin necessary to trigger βGK promoter activity (βGK promoter-driven GFP expression, HIT cells, FIG. 4B) [2]: 20 µU per ml
Substance: insulin (ligand)
